Measured values from publication PMC9507130.

Target: Vrl1-Envy (S. cerevisiae)
Experiment: co-IP; yeast spheroplast lysates (0.1% Tween-20, 50 mM HEPES, 1 mM EDTA, 50 mM NaCl, pH 7.4); rabbit anti-GFP or anti-HA, Protein A Sepharose, 4 °C; western blot; Vrl1 over-expressed in some panels; vin1Δ strain for Vps5-3HA with Vrl1-Envy

B1: Vin1-3HA (natural protein)
chain: MENDKASHASPSIGVNEFVVQGEISIDDSERSVKSVSVSISDDEDSKTDVQDNMATPSTRSKFQTDLAIDNRLLEKDPKYKKLFTEKRRRRRPESCINLMTKGKGTGQKDNINDQIFSLRILPGSDLNSLKDSLWIIKISTQPDVEKTIARAFSDFYWLYHQLQNNHWGKTIPPPTRSNILVEKDEFAINHLFMIRNNEKYDPIFNFKPEYIISLQLMAMIKHIFNDKVLRLDSNFIDFISWDDDLPESLQIVVDDSTFTGDKILMTSSQFRELKEFHKQSKKVESITNSHASLIPVTELTEIYISPTKLFSRKDYQRLFQPQSTDNTFNNNDPLIQEWIPKSKTLFTSLSFGSSAPTYQEASTEIQACHDWVSISKEQWKQLLYHVLQYIVDEAVKVNSVINEFTECLKQISLDEVIRANSELFLKFSKLNESFLKKFKGASRQDILKLIILFDENVRFCESFESILNQRLKLGKILSIIEVDLDKKKNFLDKLSPGNNNSNNEDLKIRTAEDEYRIVLKRYNRVKQSWEKIMEDILNERKEFEKREAAEVNSCLKSIRDLNMDEKKHYLQLWQDFVPDEHISQ
  percent recovery of Vin1 in the co-IP: 64%
